In the nanobody polyreactivity screen of Harvey et al. (2022):

Test: yeast display, Sf9 membrane polyspecificity reagent, FACS + sequencing; frameworks hold sequencing errors
Summary of the method: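 Nanobodies came from a synthetic yeast display library in Saccharomyces cerevisiae BJ5465, induced with galactose for 36–48 hours and stained for 1 hour at 4 °C with 10% biotinylated, detergent-solubilized Sf9 membrane reagent. Cells were enriched on streptavidin microbeads and then FACS-sorted, with low and high (top ~1%) gates set on anti-HA fluorescence for expression and streptavidin fluorescence for reagent binding. Each polyreactivity label reflects the gate a clone came from. Genes were amplified by colony PCR, sequenced by MiSeq 2 × 250 and filtered by CDR length.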

Sequence	polyreactivity (PSR sort gate)
QVQLVDSGGGLVQAGGILRLRFAASGYTFDKYAMGWYRQKPGKARELVAAITSLGGSKYYADSVKGRFTISRDHAKNTVYLQMNSLKPDVTAVYYCAAEYVAPVPRVHEEMYYWGQGTQVTVSS	high polyreactivity
QVQLVDSGGGLVQAGGILRLSCAASGLTFYDNAMGWYRQAPAKERELVAAISDSGGSTYYADSVKGRFTISRDNAKNTVFLQMNSLKPEDTAVYYCAAAGWQANWEYEYWGQGTQVTVSS	high polyreactivity
QVQLVDSGGGLVQAGGRLRLSCAASGFIYEPNAMGGYRQAPGKEMELVAAISSGGSTYADSVKGRFTISRDNAKNTVYLQMNSLKPEDTAVYYCAADSYYSVWGFYYWGQGTQVTVSS	low polyreactivity
QVQLVDSGGGLVQAGGRLRLSCAASGRTFYRNAMGWDSQAPGKERELVAAITSGGSTYYADSVKGRFTISRDTAKNTGYLQMNSLKPEDTAVYYCAALRHALRYDYWGQGTQVTVSS	low polyreactivity
QVQLVDSGGGLVQAGGRLRLSCAASGYILTHYAMGWYRQAPGKERELVAAITRVGNTNYADSVKGRFTISRDNAKNTVYLQMNSLKPEDTAVYSCAADGVASLFGDPPTEFDYWGQGTQVTVSS	low polyreactivity
QVQLVDSGGGLVQAGGSLRISCAASGLIFSKNVMGWYRQAPGKEREFVAAISQRGGSTYYADSVKGRFTISRDIAKNTVYLQMNSLKPEDTAVYYCAADNTVSHEDYWGQGTQVTVSS	high polyreactivity
QVQLVDSGGGLVQAGGSLRISCAASGNILIGNVMGWYRQAPGKERELVAAITSGGDTYYADSVKGRITISRDNAKNTVYLQMNSLKPEDTAVYYCAADRPGQPKYEYWGQGTQVTVSS	low polyreactivity
QVQLVDSGGGLVQAGGSLRISCAASGYIFSANAMGWYRKAPGKEREFVAAISSTGGSTYYADSVKGRFTISRDTAKNTVYLQMNSLKTEDTSVYYFEAYIRRYFHYDYWGQGTQVTVSS	high polyreactivity
QVQLVDSGGGLVQAGGSLRLSCAASGCTFGSYAMGWYRQAPGKERELVAGITGSGGRTYYADSVKGRFTISRDNAKNTVYLQMNSLKPEDTAVYYCATTGRRWYYPYHYWGQGTHVTVSS	high polyreactivity
QVQLVDSGGGLVQAGGSLRLSCAASGFIFDINAMGWYRQAPGKERELVAAISYSGGSTYYADSVKGRFTISRDNAKNTVYLQMNSLKPEDTAVYYCAADCGPDSDEGDYWGQGTQVTVSS	low polyreactivity
QVQLVDSGGGLVQAGGSLRLSCAASGFIFGKNAMGWYRQAPGKERELVAVISWRGSSTNYADSVKGRFTISRDNAKNTVYLQMNSLKPEDTAVYYCAARYPARGTLYYWGQGTQVTVSS	low polyreactivity
QVQLVDSGGGLVQAGGSLRLSCAASGFIFVKYAMGWYRQAPGKERELVAAITTSGTGTFYADSVKGRFTISRDNAKNTVYLQMNSLKPEDTAVYYCNALGHPGDDWGQGTQVTVSS	low polyreactivity
QVQLVDSGGGLVQAGGSLRLSCAASGFILGSNVMGWYRQAPGIERELVAAISYSGGSTYYADSVKGRFTISRDNAMNTVYLQMNILKPEDTAVYYCNARPSDVWYYYWGQGTQVTVSS	low polyreactivity
QVQLVDSGGGLVQAGGSLRLSCAASGFNFDRNTMGWYRKAPGKERELVATISSTGTTNYADSVKGRFTISRDNAKNTVYLQMNSLKPEDTAVYYCNAYPRWRYVSYYRSYRYDYWGQGTQVTVSS	high polyreactivity
QVQLVDSGGGLVQAGGSLRLSCAASGFTFGPYAMGWYRQAPGKERELGARITYRTGSTYYGDSVKGRFTISRDNAKNTVYLQINSLKPEDTAVYYCAAAYYCGQGTQVTVSS	high polyreactivity
QVQLVDSGGGLVQAGGSLRLSCAASGFTFSYYVMGWYRQAPGKERELVAAITSSGGSTYYADSVKGRFTISRDNAKNTVSLQMISRNPEDTAVYYCNALVLSSEYGYWGLGTQVTVSS	high polyreactivity
QVQLVDSGGGLVQAGGSLRLSCAASGFTFVYNVMGWNIQAPGKERELVAAINAGGGSTYYADSVKGRFTISRDNAKNTVYLQMNSLKPEDTAVYYGNARVRVRVGRNWSSYYYWGQGTQVTVSS	high polyreactivity
QVQLVDSGGGLVQAGGSLRLSCAASGFTFYANAMGWYRQAPGTERELVAALSRGVSPTYADSVKGRFTISRDNGKNTVYLEMNSLKPEDTAVYYCASDGNVIAQGYDYWGQGTQVTVSS	low polyreactivity
QVQLVDSGGGLVQAGGSLRLSCAASGGTFDTYAMGWYRQAPGKERELVAVIRASGGDTYYADSVKGRFTISRDNAKNTVYLQMNSLKPEDTAVYYCAAVLPFKYDYWGQGTQVTVSS	low polyreactivity
QVQLVDSGGGLVQAGGSLRLSCAASGHTLAVNAMGWYRPAPGKERELVAAITSSGGSTSYADSEKGRFTISRDNAKNTVYLQMNSLKPEDTAVYYCAAEQRYPLIILYDYWGQGTQVTVSS	low polyreactivity
QVQLVDSGGGLVQAGGSLRLSCAASGITFGNYAMGWYRQAPGKERELVASISWNVGSTYYADSVKGRFTISRDNAKNTVYLQMNSLKPEDTAVYYCARGYDRPRVATFHRFDYWGQGTQVTVSS	low polyreactivity
QVQLVDSGGGLVQAGGSLRLSCAASGITFRGYAMGWYRQSPGKERELVATITSSGGSTYYADSVKGRFTISRDNAKNTVYLQMNSLKPEDTAVYYCAAVPYTRYSSSRGYWGQGTQVTVSS	high polyreactivity

Sequence	polyreactivity (PSR sort gate)
QVQLVDSGGGLVQAGGSLRLSCAASGITFWDNVMGWYRQATGKERELVATITYRGGSTYADSVKGRFTISRDNAKITVFLQMNSVKPEDTAVYYCNTGVTVDILSYDSWGQGTQVTVSS	low polyreactivity
QVQLVDSGGGLVQAGGSLRLSCAASGLTFKRYAMGWYRQAPGKERQLVASITGNGGSSYYADSVKGRFTISRDNAKNTVYLQMNSLKPEDTAVYYCNARRYVRTSQQPLYDYWGQGTQVTVSS	high polyreactivity
QVQLVDSGGGLVQAGGSLRLSCAASGNIFWENTMGSYRQAPGKERELVASISNTGTTNYADSVKGRFTISRDNAKNTVYLQMNSLKPEDTAVYDCNTDLWIDTASPAPNDDDYWGQGTQVTVSS	low polyreactivity
QVQLVDSGGGLVQAGGSLRLSCAASGNTIGRNAMGWYRQAPGKEWELVAAISFSGSRTYYADSVKGRFTISRDNAKNSVYLQMNILKPEDTAVYNFIAPEGRKPYDSWVQGTQVTVSS	low polyreactivity
QVQLVDSGGGLVQAGGSLRLSCAASGRIFAWYAMGWYRQAPGKERELVAAISSGGSTNYADSVKGRFTISRDNAKNTVYLQMNSLKPEDTAVYYCNRYPVRDTGGYWGQGTQVTVSS	low polyreactivity
QVQLVDSGGGLVQAGGSLRLSCAASGRIFEGDAMGWYIQAPGKESDLVASISYDGGSTYYADSVKGRFTISRDNENITVELQMNSLKPEDTAVYYCAAVYRRRSYSFYYWGQGTQVTVSS	high polyreactivity
QVQLVDSGGGLVQAGGSLRLSCAASGRIFNWYAMGWYRQAPGKERELVARITWCDGGTYYADSVKGRFTISRDNAKNTVSLQMNSLKPDDTAVYYCAKQWKSYYALDYWGQGTQVTVSS	high polyreactivity
QVQLVDSGGGLVQAGGSLRLSCAASGRIFPRNAMGWYRQAPGKERELVATIRSSTYYADSVKGRFTISRDNAKNTVYLQMNSLKPEDTAVYYCNVRLSYSYISPSDWNFDYWGQGTQVTVSS	low polyreactivity
QVQLVDSGGGLVQAGGSLRLSCAASGRIFPVYAMAWYRHAPGKEREMVAAITKSGGNTYYADSVKGRFTISRDNAKYTVYLQMNSMKPEDTAVYYCAADSSAKMGPQYYYALDYWGQGTKVTVSS	low polyreactivity
QVQLVDSGGGLVQAGGSLRLSCAASGRIFPYYTMGCYRQAPGKETEFVAAISSSSVSTYYADSVKGRFTISRDNAKNTVYLQMNSLKAEDTAVYYCAAKRVGYHIGYVYPYGYWGQGTQVTVSS	high polyreactivity
QVQLVDSGGGLVQAGGSLRLSCAASGRIFRGYAMGWYRQAPGKERELVAAITSGGITNYADSVKGRFTISRDNAKNTVYLQMNRLKPEDTAVYYCNTRRGWRDFDYWGQGTQVTVSS	low polyreactivity
QVQLVDSGGGLVQAGGSLRLSCAASGRIFSWYTMGWYRQAPGKERELVAVITSGGTTKYADSVKGRFTISRDNAKNTVYLQMNSLKPEDTAVYYCNGAGRDYAVRWGSFDYWGQGTQVTVSS	low polyreactivity
QVQLVDSGGGLVQAGGSLRLSCAASGRIFYRYALGWYRQAPGKERELVAAITRGGRTNYADSVKGRFTISRDNAQNTVYLQMNSLKPEDTAVYYCRPLWYGFDYWGQGTQVTVSS	high polyreactivity
QVQLVDSGGGLVQAGGSLRLSCAASGRTFGSYAMGWSRQAPGKERELVAAISSSGGRTYYADSVKGRFTISRDNAKNTVYLQLNSLKPEDTAVYYCNARWRFLYDYWGQGTQVTVSS	high polyreactivity
QVQLVDSGGGLVQAGGSLRLSCAASGRTFSYYGMGWYRQAPGQERELVACIRRRGGSTYYADSVKGRFTISRDNAKNNVSLQMNSLNPEDTAVYYCTAATYGDYSNLGYGYWGQGTQVTVSS	high polyreactivity
QVQLVDSGGGLVQAGGSLRLSCAASGRTFVSYAMGWYRQAPGKERELVAAISRSGGRTYYADSVKGRFTISRDNAMNSVYLQMNCLKPEDTAVYYCATKQYGTLARYDYWGQGSQVTVSS	high polyreactivity
QVQLVDSGGGLVQAGGSLRLSCAASGRTFYSYAMGWYRQAPGKERELVSAISRNGGSTYYADSVKGRFTISRDNAKNSVYLQMNSLKPEDTAVYYCAAKRAGPYGISKGMDYWGQGTQVTVSS	high polyreactivity
QVQLVDSGGGLVQAGGSLRLSCAASGRTFYYYAMGWSRQEPGKEREFDADISGRGGTTYYADSVKGRFTISRDNAKKTVYLLMNSLKPEDTAVYYCAARSVSTLRYTSRKLRYDYWGQGTQVSVSS	high polyreactivity
QVQLVDSGGGLVQAGGSLRLSCAASGRTFYYYAMGWYRQAPGKERELVADIRGRGGSTYYADSVKGRFTISRDNAKNTVYLQMNSLKPEDTAVYYCARRSPNPYSIYYYWGQGTQVTVSS	high polyreactivity
QVQLVDSGGGLVQAGGSLRLSCAASGRTLWYYTMGWYRQAPGKERELVADITRGTSTNYADSVKVRFTISRDNAKNTVYLQMNSLKPEDTAVYYCNRAHGRSRYSRDYDSWGQGTQVTVSS	low polyreactivity
QVQLVDSGGGLVQAGGSLRLSCAASGSIFKRNAMGWYRQAPGKERELVATISSRGGSTYYADSVKGRFTISRDNAKNTVYLQMNSLKPEDTAVYYCSARGYQITGNYYTPTSKYNYWGQGTQVTVSS	high polyreactivity
